Laboratory results as given in patent US20260274985A1 (MYTHIC THERAPEUTICS, published 2026).
Substitutions are numbered along the chain they refer to.

B1: MYT11643 (antibody, V domains shown)
VH: QVQLVQSGAEVKKPGASVKVSCKASGYTFTTAHMQWVRQAPGQGLEWMGWINTHSGVPKYAEDFKGRVTISADTSTSTAYLQLSSLKSEDTAVYYCARSGFGSSYWYFDVWGQGTLVTVSS
VL: DIQMTQSPSSLSASVGDRVTITCKASQDVSTAVAWYQQKPGKAPKLLIYSASYRYTGVPSRFSGSGSGTDFTLTISSLQPEDFAVYYCQQHYITPLTFGQGTKLEIK
notes: IgG from supernatant; His at HCV position 33; also called datopotamab variant H1 08
B2: MYT11666 (antibody, V domains shown)
VH: B1 VH with H33G, G100H
VL: B1 VL
notes: IgG from supernatant; His at HCV position 100; also called datopotamab variant H3 04
B3: MYT11663 (antibody, V domains shown)
VH: B1 VH with H33G, A97H
VL: B1 VL
notes: IgG from supernatant; His at HCV position 97; also called datopotamab variant H3 01
B4: MYT11665 (antibody, V domains shown)
VH: B1 VH with H33G, S99H
VL: B1 VL
notes: IgG from supernatant; His at HCV position 99; also called datopotamab variant H3 03
B5: MYT11668 (antibody, V domains shown)
VH: B1 VH with H33G, G102H
VL: B1 VL
notes: IgG from supernatant; also called datopotamab variant H3 06
B6: MYT11669 (antibody, V domains shown)
VH: B1 VH with H33G, S103H
VL: B1 VL
notes: IgG from supernatant; also called datopotamab variant H3 07
B7: MYT11672 (antibody, V domains shown)
VH: B1 VH with H33G, W106H
VL: B1 VL
notes: IgG from supernatant; also called datopotamab variant H3 10
B8: MYT12416 (hu7E6SVG variant, HCV substitutions at 34, 102) (antibody, V domains shown)
VH: QVQLQESGPGLVKPSETLSLTCTVSGGSISSYGHHWIRQPPGKGLEWIGVIWTSGVTDYNSALMGRVTISVDTSKNQFSLKLSSVTAADTAVYYCARDGDYHRYTMDYWGQGTLVTVSS
VL: DIVMTQSPDSLAVSLGERATINCRASKSVSTSGYSYMHWYQQKPGQPPKLLIYLASNLESGVPDRFSGSGSGTDFTLTISSLQAEDVAVYYCQHSRELPYTFGQGTKLEIK
B9: MYT12417 (hu7E6SVG variant, HCV substitutions at 34, 103) (antibody, V domains shown)
VH: B8 VH with H102D, R103H
VL: B8 VL
B10: MYT12425 (hu7E6SVG variant, HCV substitutions at 56, 106) (antibody, V domains shown)
VH: B8 VH with H34V, V56H, H102D, M106H
VL: B8 VL
B11: MYT12420 (hu7E6SVG variant, HCV substitutions at 51, 102) (antibody, V domains shown)
VH: B8 VH with H34V, I51H
VL: B8 VL
B12: MYT12421 (hu7E6SVG variant, HCV substitutions at 51, 103) (antibody, V domains shown)
VH: B8 VH with H34V, I51H, H102D, R103H
VL: B8 VL
B13: MYT12424 (hu7E6SVG variant, HCV substitutions at 56, 103) (antibody, V domains shown)
VH: B8 VH with H34V, V56H, H102D, R103H
VL: B8 VL

target: T1, Human TROP2 Protein, His Tag (human, UniProt P09758 27-274); assay: BLI (Octet)
T1 construct: Bought protein; also called TACSTD2; not shown: His tag
T1 sequence (looked up): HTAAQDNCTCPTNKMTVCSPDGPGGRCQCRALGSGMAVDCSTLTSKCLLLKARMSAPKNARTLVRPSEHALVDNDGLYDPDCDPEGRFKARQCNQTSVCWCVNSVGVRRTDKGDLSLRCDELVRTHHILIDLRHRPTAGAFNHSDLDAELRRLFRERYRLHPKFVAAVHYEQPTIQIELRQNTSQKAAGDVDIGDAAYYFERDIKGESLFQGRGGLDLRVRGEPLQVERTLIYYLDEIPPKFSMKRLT

Row | Binder | binding result
1 | B1 | no binding (tested: 50 nM)
2 | B2 | no binding (tested: 50 nM)
3 | B3 | no binding (tested: 50 nM)
4 | B4 | no binding (tested: 50 nM)
5 | B5 | no binding (tested: 50 nM)
6 | B6 | no binding (tested: 50 nM)
7 | B7 | no binding (tested: 50 nM)

target: T2, Human TROP2 Protein, His Tag (Acro Biosystems) (human, UniProt P09758 27-274); assay: BLI (Octet)
T2 construct: Bought protein; also called TACSTD2; not shown: His tag
T2 sequence: T1 sequence (looked up)

Row | Binder | binding result
8 | B8 | binds
9 | B9 | binds
10 | B10 | binds
11 | B11 | binds
12 | B12 | binds
13 | B13 | binds
